How the values were obtained:
[1] = biological target: pIgR Domain 6 GST (D6-GST) fusion protein, species not named; assay: SPR (Biacore), 1:1 Langmuir model; ligand not given
[2] = biological target: T1, GST-Cyn monkey-stalk fusion protein (Schistosoma japonica; cynomolgus monkey); assay: SPR (Biacore), D6-GST captured on anti-GST antibody, global fit
T1 construct: also called D6 cyno; Cyno; not shown: GST (Schistosoma japonicum, from pGEX-2TK) and its linker before the GS
T1 chain: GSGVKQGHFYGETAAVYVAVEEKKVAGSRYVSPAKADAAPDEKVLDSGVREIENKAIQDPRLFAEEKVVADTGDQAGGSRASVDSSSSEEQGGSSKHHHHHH

[3] = biological target: T2, GST-Human-stalk fusion protein (Schistosoma japonica; human, UniProt P01833 550-638); assay: as above
T2 construct: domain: stalk; About 37.8 kD; also called D6 human; human pIgR Domain 6 GST (D6-GST) fusion protein; not shown: glutathione-S-transferase from Schistosoma japonica, from vector pGEX-2TK

[4] = biological target: T3, GST-Rat-stalk fusion protein (Schistosoma japonica; rat, UniProt P15083 535-643); assay: as above
T3 construct: domain: stalk; About 39.3 kD, no 6xHis tag; also called [GST]-[rat domain 6] fusion protein; D6 rat; not shown: glutathione-S-transferase from Schistosoma japonica, from vector pGEX-2TK
T3 sequence (looked up): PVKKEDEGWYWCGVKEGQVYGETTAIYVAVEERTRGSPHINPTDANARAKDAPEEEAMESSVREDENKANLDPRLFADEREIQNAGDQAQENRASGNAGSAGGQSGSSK

[5] = biological target: pIgR expressed on transfected MDCK cells; assay: cell-based or functional assay
[6] = biological target: T1, GST-Cyn monkey-stalk fusion protein; assay: SPR (Biacore), D6-GST captured on anti-GST antibody, 1:1 Langmuir global fit
[7] = biological target: T2, GST-Human-stalk fusion protein; assay: as above
[8] = biological target: T3, GST-Rat-stalk fusion protein; assay: as above
[9] = biological target: T1, GST-Cyn monkey-stalk fusion protein; assay: SPR (Biacore), D6-GST captured on anti-GST antibody
[10] = biological target: T2, GST-Human-stalk fusion protein; assay: as above
[11] = biological target: T3, GST-Rat-stalk fusion protein; assay: as above

T2 sequence (P01833 550-638, tags left off): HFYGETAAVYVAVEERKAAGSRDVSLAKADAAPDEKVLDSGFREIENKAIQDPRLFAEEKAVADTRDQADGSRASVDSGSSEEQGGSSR

Binder	Ka [1]	Kd [1]	koff [1]	kon [1]	Ka [2]	Kd [2]	koff [2]	kon [2]	Ka [3]	Kd [3]	koff [3]	kon [3]	Ka [4]	Kd [4]	koff [4]	kon [4]	Ka [6]	Kd [6]	koff [6]	kon [6]	further results
single chain antibody sFv5A (scFv) scFv: QVQLQQSGGGVVQPGRSLRLSCAASGFTFSSYAMHWVRQAPGKGLEWVSAISGSGGSTYYADSVKGRFTISRDNAKNSLYLQMNSLRAEDTAVYYCARDTRGYFDLWGRGTLVTVSSGGGGSGGGGSGGGGSSELTQDPAMSVALGQTVRITCQGDSLRKYHASWYQQRPRQAPRLVVYGKNERPSGIPERFSGSTSGDTASLTISGLQAEDEADYYCHSRDSNADLVVFGGGTKVTVLGAAAEQKLISEEDLNGAAHHHHHH	6.31e+06 M⁻¹	158 nM	0.00464 s⁻¹	29300 M⁻¹ s⁻¹	1.93e+07 M⁻¹	51.8 nM	0.00397 s⁻¹	76700 M⁻¹ s⁻¹	2.16e+07 M⁻¹	46.3 nM	0.00337 s⁻¹	72900 M⁻¹ s⁻¹	2.95e+07 M⁻¹	33.9 nM	0.00262 s⁻¹	77300 M⁻¹ s⁻¹					
single chain antibody sFv5AF (scFv) scFv: DYKAKQVQLVQSGGGVVQPGRSLRLSCAASGFTFSSYAMHWVRQAPGKGLEWVSAISGSGGSTYYADSVKGRFTISRDNAKNSLYLQMNSLRAEDTAVYYCARDTRGYFDLWGRGTLVTVSSGGGGSGGGGSGGGGSSELTQDPAMSVALGQTVRITCQGDSLRKYHASWYQQRPRQAPRLVVYGKNERPSGIPERFSGSTSGDTASLTISGLQAEDEADYYCHSRDSNADLVVFGGGTKVTVLGAAAEQKLISEEDLNGAAHHHHHH	4.47e+06 M⁻¹	224 nM	0.00464 s⁻¹	27100 M⁻¹ s⁻¹																	percent transcytosis, pIgR expressing MDCK cells, overnight [5]: 2%
sFv5AF-Cys (starting material, mixture of monomer and dimer) (scFv, also called s5AF-Cys) scFv: DYKAKQVQLVQSGGGVVQPGRSLRLSCAASGFTFSSYAMHWVRQAPGKGLEWVSAISGSGGSTYYADSVKGRFTISRDNAKNSLYLQMNSLRAEDTAVYYCARDTRGYFDLWGRGTLVTVSSGGGGSGGGGSGGGGSSELTQDPAMSVALGQTVRITCQGDSLRKYHASWYQQRPRQAPRLVVYGKNERPSGIPERFSGSTSGDTASLTISGLQAEDEADYYCHSRDSNADLVVFGGGTKVTVLGGGGGSCAAAEQKLISEEDLNGAAHHHHHH	9.84e+06 M⁻¹	102 nM	0.00464 s⁻¹	37600 M⁻¹ s⁻¹													7.7e+08 M⁻¹	1.3 nM	0.00137 s⁻¹	1.06e+06 M⁻¹ s⁻¹	Ka [7]: 6.71e+08 M⁻¹; Kd [7]: 1.49 nM; koff [7]: 0.00145 s⁻¹; kon [7]: 976000 M⁻¹ s⁻¹; Ka [8]: 4.36e+08 M⁻¹; Kd [8]: 2.3 nM; koff [8]: 0.00282 s⁻¹; kon [8]: 1.23e+06 M⁻¹ s⁻¹
[monomer sFv5AF-Cys]-SPDP-[15 kD protein] conjugate with c-myc tag (Az018a) (other) scFv: DYKAKQVQLVQSGGGVVQPGRSLRLSCAASGFTFSSYAMHWVRQAPGKGLEWVSAISGSGGSTYYADSVKGRFTISRDNAKNSLYLQMNSLRAEDTAVYYCARDTRGYFDLWGRGTLVTVSSGGGGSGGGGSGGGGSSELTQDPAMSVALGQTVRITCQGDSLRKYHASWYQQRPRQAPRLVVYGKNERPSGIPERFSGSTSGDTASLTISGLQAEDEADYYCHSRDSNADLVVFGGGTKVTVLGGGGGSCAAAEQKLISEEDLNGAAHHHHHH					9.69e+06 M⁻¹	103 nM	0.00535 s⁻¹	51800 M⁻¹ s⁻¹	9.62e+06 M⁻¹	104 nM	0.00449 s⁻¹	43200 M⁻¹ s⁻¹	1.24e+07 M⁻¹	80.6 nM	0.0038 s⁻¹	47100 M⁻¹ s⁻¹					
purified monomer sFv5AF-Cys (scFv, also called 5Afcys Monomer; sFv5AF-Cys monomer) scFv: DYKAKQVQLVQSGGGVVQPGRSLRLSCAASGFTFSSYAMHWVRQAPGKGLEWVSAISGSGGSTYYADSVKGRFTISRDNAKNSLYLQMNSLRAEDTAVYYCARDTRGYFDLWGRGTLVTVSSGGGGSGGGGSGGGGSSELTQDPAMSVALGQTVRITCQGDSLRKYHASWYQQRPRQAPRLVVYGKNERPSGIPERFSGSTSGDTASLTISGLQAEDEADYYCHSRDSNADLVVFGGGTKVTVLGGGGGSCAAAEQKLISEEDLNGAAHHHHHH																	1.73e+08 M⁻¹	5.77 nM	0.00256 s⁻¹	443000 M⁻¹ s⁻¹	Ka [7]: 1.77e+08 M⁻¹; Kd [7]: 5.64 nM; koff [7]: 0.00241 s⁻¹; kon [7]: 428000 M⁻¹ s⁻¹; Ka [8]: 1.77e+08 M⁻¹; Kd [8]: 5.63 nM; koff [8]: 0.00303 s⁻¹; kon [8]: 538000 M⁻¹ s⁻¹
purified dimer sFv5AF-Cys (scFv, also called 5Afcys Dimer; sFv5AF-Cys dimer) scFv: DYKAKQVQLVQSGGGVVQPGRSLRLSCAASGFTFSSYAMHWVRQAPGKGLEWVSAISGSGGSTYYADSVKGRFTISRDNAKNSLYLQMNSLRAEDTAVYYCARDTRGYFDLWGRGTLVTVSSGGGGSGGGGSGGGGSSELTQDPAMSVALGQTVRITCQGDSLRKYHASWYQQRPRQAPRLVVYGKNERPSGIPERFSGSTSGDTASLTISGLQAEDEADYYCHSRDSNADLVVFGGGTKVTVLGGGGGSCAAAEQKLISEEDLNGAAHHHHHH																	4.61e+08 M⁻¹	2.17 nM	0.00244 s⁻¹	1.12e+06 M⁻¹ s⁻¹	fold difference in affinity against the purified monomer [9]: ~3 fold; fold difference in affinity against the purified monomer [10]: ~3 fold; fold difference in affinity against the purified monomer [11]: ~3 fold; Ka [7]: 5.02e+08 M⁻¹; Kd [7]: 1.99 nM; koff [7]: 0.00217 s⁻¹; kon [7]: 1.09e+06 M⁻¹ s⁻¹; Ka [8]: 5.01e+08 M⁻¹; Kd [8]: 2 nM; koff [8]: 0.00341 s⁻¹; kon [8]: 1.71e+06 M⁻¹ s⁻¹
[dimer sFv5AF-Cys]-SPDP-[15 kD protein] conjugate (Az019) (other, also called AzO19; Az0019) scFv 1: DYKAKQVQLVQSGGGVVQPGRSLRLSCAASGFTFSSYAMHWVRQAPGKGLEWVSAISGSGGSTYYADSVKGRFTISRDNAKNSLYLQMNSLRAEDTAVYYCARDTRGYFDLWGRGTLVTVSSGGGGSGGGGSGGGGSSELTQDPAMSVALGQTVRITCQGDSLRKYHASWYQQRPRQAPRLVVYGKNERPSGIPERFSGSTSGDTASLTISGLQAEDEADYYCHSRDSNADLVVFGGGTKVTVLGGGGGSCAAAEQKLISEEDLNGAAHHHHHH scFv 2: DYKAKQVQLVQSGGGVVQPGRSLRLSCAASGFTFSSYAMHWVRQAPGKGLEWVSAISGSGGSTYYADSVKGRFTISRDNAKNSLYLQMNSLRAEDTAVYYCARDTRGYFDLWGRGTLVTVSSGGGGSGGGGSGGGGSSELTQDPAMSVALGQTVRITCQGDSLRKYHASWYQQRPRQAPRLVVYGKNERPSGIPERFSGSTSGDTASLTISGLQAEDEADYYCHSRDSNADLVVFGGGTKVTVLGGGGGSCAAAEQKLISEEDLNGAAHHHHHH					1.52e+08 M⁻¹	6.57 nM	0.00108 s⁻¹	164000 M⁻¹ s⁻¹	1.39e+08 M⁻¹	7.18 nM	0.00109 s⁻¹	152000 M⁻¹ s⁻¹	1.06e+08 M⁻¹	9.39 nM	0.00196 s⁻¹	209000 M⁻¹ s⁻¹					
[monomer sFv5AF-Cys]-SPDP-[15 kD protein] conjugate without c-myc tag (Az018b) (other, also called Az0018b; not shown: the 15 kD protein (never identified); the exact point where the c-myc/His tail was lost) scFv: DYKAKQVQLVQSGGGVVQPGRSLRLSCAASGFTFSSYAMHWVRQAPGKGLEWVSAISGSGGSTYYADSVKGRFTISRDNAKNSLYLQMNSLRAEDTAVYYCARDTRGYFDLWGRGTLVTVSSGGGGSGGGGSGGGGSSELTQDPAMSVALGQTVRITCQGDSLRKYHASWYQQRPRQAPRLVVYGKNERPSGIPERFSGSTSGDTASLTISGLQAEDEADYYCHSRDSNADLVVFGGGTKVTVLGGGGGSC					9.5e+06 M⁻¹	105 nM	0.00557 s⁻¹	52900 M⁻¹ s⁻¹	9.3e+06 M⁻¹	107 nM	0.00465 s⁻¹	43200 M⁻¹ s⁻¹	1.28e+07 M⁻¹	77.9 nM	0.00385 s⁻¹	49400 M⁻¹ s⁻¹					

— patent US20030161809A1 (published 2003)
